Usually Ki stands for the equilibrium dissociation constant of an inhibitor or competing ligand from its target.

Data on 2 molecules can be found in patent publication US20100233188A1 (YEDA RESEARCH AND DEVELOPMENT, published 2010).

Assay [1] addresses MMP-2 (active; construct not stated at that place) (Mus musculus (Mouse), UniProt P33434 110-467, catalytic and structural zinc and calcium ions are bound; the letters cannot show them). Put plainly: cell-based or functional assay.
The target in assay [2] is TNF-alpha-converting enzyme (TACE, ADAM-17) (UniProt P78536 215-671, limits assumed). Put plainly: cell-based or functional assay.
TNF-alpha-converting enzyme (TACE, ADAM-17), sequence (P78536 215-671 limits assumed): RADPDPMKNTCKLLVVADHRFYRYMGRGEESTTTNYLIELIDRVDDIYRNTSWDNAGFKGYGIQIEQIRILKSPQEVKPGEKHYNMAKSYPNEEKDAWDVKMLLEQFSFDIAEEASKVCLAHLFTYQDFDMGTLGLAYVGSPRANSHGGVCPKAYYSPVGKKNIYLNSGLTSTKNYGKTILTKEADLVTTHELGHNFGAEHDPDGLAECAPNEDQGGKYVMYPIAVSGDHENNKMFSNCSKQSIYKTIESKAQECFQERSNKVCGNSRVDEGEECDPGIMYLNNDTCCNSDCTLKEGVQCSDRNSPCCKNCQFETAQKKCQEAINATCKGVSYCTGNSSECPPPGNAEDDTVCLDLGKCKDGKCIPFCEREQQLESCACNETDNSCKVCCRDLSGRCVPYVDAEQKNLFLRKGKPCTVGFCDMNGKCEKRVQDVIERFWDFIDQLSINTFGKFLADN
In assay [3] the target is T1, MT1-MMP (MMP-14) catalytic domain (UniProt P50281 112-284, limits assumed). Put plainly: cell-based or functional assay.
Assay [4] addresses T2, full length APMA activated MMP-9 (human) (human, UniProt P14780 107-707).
T2 construct: mature; Active enzyme lacking the pro domain; also called active MMP-9 (full length)
Put plainly: enzyme kinetics with fluorogenic peptide substrate, Lineweaver-Burk plot, competitive inhibition; full length APMA activated MMP-9 (FIG. 4B).

Assay [5] concerns the target T3, MMP-2 catalytic domain (MMP-2cat), amino acids 110-467 of GenBank NP-032636.1 (UniProt P33434 110-467).
T3 construct: range 110-467; also called MMP2 catalytic fragment; recombinant MMP-2 catalytic domain
Put plainly: enzyme kinetics with fluorogenic peptide substrate, Lineweaver-Burk plot, competitive inhibition; MMP-2cat (FIG. 4A).

Assay [6] deals with T4, full length APMA activated MMP-2 (human) (human, UniProt P08253 110-660).
T4 construct: mature; Active enzyme lacking the pro domain; also called full length MMP2 purified from Hila cells; active MMP-2
T4 sequence (looked up): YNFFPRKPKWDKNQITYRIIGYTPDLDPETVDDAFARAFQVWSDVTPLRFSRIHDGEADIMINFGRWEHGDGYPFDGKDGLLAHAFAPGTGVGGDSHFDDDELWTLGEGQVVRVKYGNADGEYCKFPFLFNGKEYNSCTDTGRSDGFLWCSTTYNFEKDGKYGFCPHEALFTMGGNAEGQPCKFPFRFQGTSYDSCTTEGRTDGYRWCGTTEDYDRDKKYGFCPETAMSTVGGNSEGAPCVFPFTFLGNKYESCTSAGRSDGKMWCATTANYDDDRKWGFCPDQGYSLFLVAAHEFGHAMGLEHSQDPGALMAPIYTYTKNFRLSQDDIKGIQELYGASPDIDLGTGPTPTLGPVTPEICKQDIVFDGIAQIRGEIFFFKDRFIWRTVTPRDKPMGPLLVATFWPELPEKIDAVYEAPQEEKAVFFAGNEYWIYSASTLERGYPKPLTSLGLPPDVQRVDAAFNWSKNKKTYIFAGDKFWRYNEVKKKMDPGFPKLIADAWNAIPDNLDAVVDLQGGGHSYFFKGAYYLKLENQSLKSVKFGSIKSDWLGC
Put plainly: inhibition of fluorogenic peptide cleavage, fit assuming competitive inhibition; full length APMA activated MMP-2 (FIG. 5).

Assay [7] deals with T4, full length APMA activated MMP-2 (human). Put plainly: inhibition of fluorogenic peptide cleavage, fit to competitive inhibition; full length MMP2 purified from HeLa cells (FIG. 12B).
The target of assay [8] is T5, MMP-9 catalytic domain (recombinant catalytic fragment without the hemopexin and pro domain, APMA activated) (human, UniProt P14780 20-707).
T5 construct: domain: catalytic fragment (without the hemopexin and pro domain); also called MMP-9 recombinant catalytic fragment; MMP9 catalytic fragment
T5 sequence (P14780 20-707): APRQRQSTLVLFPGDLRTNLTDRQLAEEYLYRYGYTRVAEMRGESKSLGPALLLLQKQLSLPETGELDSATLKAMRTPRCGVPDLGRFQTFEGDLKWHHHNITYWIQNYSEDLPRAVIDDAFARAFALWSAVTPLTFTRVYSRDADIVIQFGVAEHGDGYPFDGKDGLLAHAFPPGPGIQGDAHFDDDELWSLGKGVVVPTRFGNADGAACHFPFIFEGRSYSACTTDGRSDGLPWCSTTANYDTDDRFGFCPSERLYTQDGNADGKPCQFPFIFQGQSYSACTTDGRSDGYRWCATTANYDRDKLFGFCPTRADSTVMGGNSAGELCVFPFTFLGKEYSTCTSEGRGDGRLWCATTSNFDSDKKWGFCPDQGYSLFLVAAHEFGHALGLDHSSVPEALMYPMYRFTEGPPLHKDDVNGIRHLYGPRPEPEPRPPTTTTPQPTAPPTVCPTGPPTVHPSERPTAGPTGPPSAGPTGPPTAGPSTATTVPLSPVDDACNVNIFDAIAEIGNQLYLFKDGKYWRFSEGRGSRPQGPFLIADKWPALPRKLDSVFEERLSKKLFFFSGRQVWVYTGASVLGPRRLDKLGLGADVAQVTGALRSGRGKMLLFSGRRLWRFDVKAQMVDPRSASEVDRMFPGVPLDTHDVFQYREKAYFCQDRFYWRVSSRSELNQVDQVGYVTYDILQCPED
Put plainly: inhibition of fluorogenic peptide cleavage, fit to competitive inhibition; MMP-9 recombinant catalytic fragment (FIG. 12A).

The target in assay [9] is T1, MT1-MMP (MMP-14) catalytic domain. Put plainly: inhibition of fluorogenic peptide cleavage, fit to competitive inhibition; catalytic domain of MT1-MMP (FIG. 12B).
Assay [10] addresses T5, MMP-9 catalytic domain (recombinant …). Put plainly: inhibition of fluorogenic peptide cleavage, fit assuming competitive inhibition; MMP-9 catalytic domain (FIG. 5).
In assay [11] the target is T1, MT1-MMP (MMP-14) catalytic domain. Put plainly: in-vitro fluorescence enzymatic activity assay with peptide substrate.

T2 sequence (P14780 107-707): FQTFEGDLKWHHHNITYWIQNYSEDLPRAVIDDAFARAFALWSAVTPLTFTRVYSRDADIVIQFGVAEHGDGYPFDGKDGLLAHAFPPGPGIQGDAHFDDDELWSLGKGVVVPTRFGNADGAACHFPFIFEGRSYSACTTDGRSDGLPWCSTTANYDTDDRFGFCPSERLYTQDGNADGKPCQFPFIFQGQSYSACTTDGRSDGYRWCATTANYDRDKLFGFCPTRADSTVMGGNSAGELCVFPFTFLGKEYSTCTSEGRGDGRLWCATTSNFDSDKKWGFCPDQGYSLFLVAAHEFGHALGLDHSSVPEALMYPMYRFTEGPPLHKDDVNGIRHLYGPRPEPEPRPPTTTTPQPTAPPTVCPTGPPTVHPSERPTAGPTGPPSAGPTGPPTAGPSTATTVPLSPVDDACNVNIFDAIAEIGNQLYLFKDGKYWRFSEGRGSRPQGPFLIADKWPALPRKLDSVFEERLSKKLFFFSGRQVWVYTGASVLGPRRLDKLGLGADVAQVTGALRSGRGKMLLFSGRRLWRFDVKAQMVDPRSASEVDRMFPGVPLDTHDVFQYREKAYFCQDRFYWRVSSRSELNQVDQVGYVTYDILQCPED

B1: 13E11 monoclonal antibody (anti CoTCPP mAb) (antibody, V domains shown)
VH: EGGGLVQPGGSRKLSCAASGFTFTSFGMHWVRQAPEKGLEWVAYISSGNEIIYYADTVKGRFTISRDNPKNTLFLQMTSLRSEDTAMYYCARNYYRYGFYVMDYWGQG
VL: EIVVTQSPAILSASPGEKVTMTCRASSSVSYMHWYQQKPGSSPKPWIYATSNELASGVPARFSGSGSGTSYSLTISRVEAEDAATYYCQQWISNPLTFGAG
Take B1: the “IC50 µM, inhibition of fluorogenic peptide cleavage” value in assay [1] was 24 µM; in [2], above 30 µM; in assay [3], above 30 µM. The inhibition constant Ki in assay [4] worked out at 13 µM; in [5], 24 µM.

B2: 6C6 monoclonal antibody (anti Imisdp mAb) (antibody, V domains shown)
VH: CGGGLVKPGGSLKLSCAASGFAFSTYDMETSWIRQTPEKRLEWVATISSGGSCYTYYPDSVKGRFTISKDNARNTLYLQMETSSLRSGDTALYYCTRFRYDGWYFDVWGQG
VL: CMETTQTPLSLPVSLGDQASISCRSSQSIVHSNGNTFLEWYLQKPGQSPKLLIYKVSNCRFSGVPDRFSGSGSGTDFTLKISRVEAEDLGVYYCFQASHVPPTFGGG
On to B2, for which the inhibition constant Ki in assay [6] amounted to 3 µM; in assay [7], 1.4 µM; in assay [8], 1 µM; in assay [9] it was 14.4 µM; in assay [10], 5.8 µM; in assay [11] it was 10 µM. The “IC50 µM, inhibition of fluorogenic peptide cleavage” value is above 30 µM in assay [2] and 14.4 µM in assay [3].
